In patent publication US7183387 (Genentech, dated 2007):

T1: human FcγRIIA-R131 α subunit extracellular domain-6His-GST fusion (human, UniProt P12318 34-217)
T1 construct: also called FcγRIIA-Arg131; not shown: glutathione S-transferase (GST)
T1 sequence: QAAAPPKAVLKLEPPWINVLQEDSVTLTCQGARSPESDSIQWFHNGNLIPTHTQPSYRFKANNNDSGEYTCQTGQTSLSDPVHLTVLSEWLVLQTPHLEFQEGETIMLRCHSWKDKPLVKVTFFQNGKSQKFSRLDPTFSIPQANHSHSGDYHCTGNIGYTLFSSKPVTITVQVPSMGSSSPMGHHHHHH

T2: human FcγRIIB α subunit extracellular domain-6His-GST fusion (human, UniProt P31994 43-217)
T2 construct: not shown: glutathione S-transferase (GST)
T2 sequence: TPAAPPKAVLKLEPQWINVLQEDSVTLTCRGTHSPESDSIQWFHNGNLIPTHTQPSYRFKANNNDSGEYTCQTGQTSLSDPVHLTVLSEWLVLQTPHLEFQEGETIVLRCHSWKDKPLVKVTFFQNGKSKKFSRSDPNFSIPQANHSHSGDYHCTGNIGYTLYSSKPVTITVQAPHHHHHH


What was measured:
Experiment in all cases: ELISA, IgG:IgE hexamers on receptor-GST
[1] = biological target: T3, human FcγRIIIA-F158 α subunit extracellular domain-6His-GST fusion (human, UniProt P08637 17-208)
T3 construct: also called FcγRIIIA-Phe158; not shown: glutathione S-transferase (GST)

[2] = biological target: T1, human FcγRIIA-R131 α subunit …
[3] = biological target: T2, human FcγRIIB α subunit extracellular …

T3 sequence (P08637 other isoform, or with tags, fused parts or gaps, form in doubt): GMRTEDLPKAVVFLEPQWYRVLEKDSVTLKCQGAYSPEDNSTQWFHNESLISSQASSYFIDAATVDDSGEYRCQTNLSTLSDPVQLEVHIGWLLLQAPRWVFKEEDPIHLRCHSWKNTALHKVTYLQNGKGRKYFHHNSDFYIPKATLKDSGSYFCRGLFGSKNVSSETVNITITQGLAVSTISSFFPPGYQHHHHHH

Binder | ratio to native IgG1 [1] | ratio to native IgG1 [2] | ratio to native IgG1 [3]
E27 IgG1 variant E272(285)N (antibody, also called IG2 224) heavy: not shown light: DIQLTQSPSSLSASVGDRVTITCRASKPVDGEGDSYLNWYQQKPGKAPKLLIYAASYLESGVPSRFSGSGSGTDFTLTISSLQPEDFATYYCQQSHEDPYTFGQGTKVEIKRTVAAPSVFIFPPSDEQLKSGTASVVCLLNNFYPREAKVQWKVDNALQSGNSQESVTEQDSKDSTYSLSSTLTLSKADYEKHKVYACEVTHQGLSSPVTKSFNRGEC | 0.5 | 0.43 | 0.23
E27 IgG1 variant E272(285)Q (antibody, also called IG2 223) heavy: not shown light: DIQLTQSPSSLSASVGDRVTITCRASKPVDGEGDSYLNWYQQKPGKAPKLLIYAASYLESGVPSRFSGSGSGTDFTLTISSLQPEDFATYYCQQSHEDPYTFGQGTKVEIKRTVAAPSVFIFPPSDEQLKSGTASVVCLLNNFYPREAKVQWKVDNALQSGNSQESVTEQDSKDSTYSLSSTLTLSKADYEKHKVYACEVTHQGLSSPVTKSFNRGEC | 0.82 | 1.93 | 1.81
E27 IgG1 variant E283(300)D (antibody) heavy: not shown light: DIQLTQSPSSLSASVGDRVTITCRASKPVDGEGDSYLNWYQQKPGKAPKLLIYAASYLESGVPSRFSGSGSGTDFTLTISSLQPEDFATYYCQQSHEDPYTFGQGTKVEIKRTVAAPSVFIFPPSDEQLKSGTASVVCLLNNFYPREAKVQWKVDNALQSGNSQESVTEQDSKDSTYSLSSTLTLSKADYEKHKVYACEVTHQGLSSPVTKSFNRGEC | 0.95 | 1.14 | 1.23
E27 IgG1 variant E283(300)N (antibody, also called IG2 228) heavy: not shown light: DIQLTQSPSSLSASVGDRVTITCRASKPVDGEGDSYLNWYQQKPGKAPKLLIYAASYLESGVPSRFSGSGSGTDFTLTISSLQPEDFATYYCQQSHEDPYTFGQGTKVEIKRTVAAPSVFIFPPSDEQLKSGTASVVCLLNNFYPREAKVQWKVDNALQSGNSQESVTEQDSKDSTYSLSSTLTLSKADYEKHKVYACEVTHQGLSSPVTKSFNRGEC | 0.94 | 1.18 | 1.28
E27 IgG1 variant E283(300)Q (antibody, also called IG2 226) heavy: not shown light: DIQLTQSPSSLSASVGDRVTITCRASKPVDGEGDSYLNWYQQKPGKAPKLLIYAASYLESGVPSRFSGSGSGTDFTLTISSLQPEDFATYYCQQSHEDPYTFGQGTKVEIKRTVAAPSVFIFPPSDEQLKSGTASVVCLLNNFYPREAKVQWKVDNALQSGNSQESVTEQDSKDSTYSLSSTLTLSKADYEKHKVYACEVTHQGLSSPVTKSFNRGEC | 1.19 | 1.12 | 1.24
E27 IgG1 variant E283(300)S (antibody, also called IG2 227) heavy: not shown light: DIQLTQSPSSLSASVGDRVTITCRASKPVDGEGDSYLNWYQQKPGKAPKLLIYAASYLESGVPSRFSGSGSGTDFTLTISSLQPEDFATYYCQQSHEDPYTFGQGTKVEIKRTVAAPSVFIFPPSDEQLKSGTASVVCLLNNFYPREAKVQWKVDNALQSGNSQESVTEQDSKDSTYSLSSTLTLSKADYEKHKVYACEVTHQGLSSPVTKSFNRGEC | 0.85 | 1.03 | 1.07
E27 IgG1 variant E293(310)D (antibody) heavy: not shown light: DIQLTQSPSSLSASVGDRVTITCRASKPVDGEGDSYLNWYQQKPGKAPKLLIYAASYLESGVPSRFSGSGSGTDFTLTISSLQPEDFATYYCQQSHEDPYTFGQGTKVEIKRTVAAPSVFIFPPSDEQLKSGTASVVCLLNNFYPREAKVQWKVDNALQSGNSQESVTEQDSKDSTYSLSSTLTLSKADYEKHKVYACEVTHQGLSSPVTKSFNRGEC | 0.37 | 0.9 | 0.88
E27 IgG1 variant E293(310)K (antibody) heavy: not shown light: DIQLTQSPSSLSASVGDRVTITCRASKPVDGEGDSYLNWYQQKPGKAPKLLIYAASYLESGVPSRFSGSGSGTDFTLTISSLQPEDFATYYCQQSHEDPYTFGQGTKVEIKRTVAAPSVFIFPPSDEQLKSGTASVVCLLNNFYPREAKVQWKVDNALQSGNSQESVTEQDSKDSTYSLSSTLTLSKADYEKHKVYACEVTHQGLSSPVTKSFNRGEC | 0.72 | 1.13 | 1.31
E27 IgG1 variant E293(310)Q (antibody) heavy: not shown light: DIQLTQSPSSLSASVGDRVTITCRASKPVDGEGDSYLNWYQQKPGKAPKLLIYAASYLESGVPSRFSGSGSGTDFTLTISSLQPEDFATYYCQQSHEDPYTFGQGTKVEIKRTVAAPSVFIFPPSDEQLKSGTASVVCLLNNFYPREAKVQWKVDNALQSGNSQESVTEQDSKDSTYSLSSTLTLSKADYEKHKVYACEVTHQGLSSPVTKSFNRGEC | 0.99 | 0.85 | 0.77
E27 IgG1 variant E294(311)D (antibody, also called IG2 174) heavy: not shown light: DIQLTQSPSSLSASVGDRVTITCRASKPVDGEGDSYLNWYQQKPGKAPKLLIYAASYLESGVPSRFSGSGSGTDFTLTISSLQPEDFATYYCQQSHEDPYTFGQGTKVEIKRTVAAPSVFIFPPSDEQLKSGTASVVCLLNNFYPREAKVQWKVDNALQSGNSQESVTEQDSKDSTYSLSSTLTLSKADYEKHKVYACEVTHQGLSSPVTKSFNRGEC | 0.14 | 0.37 | 0.26
E27 IgG1 variant E294(311)Q (antibody, also called IG2 173) heavy: not shown light: DIQLTQSPSSLSASVGDRVTITCRASKPVDGEGDSYLNWYQQKPGKAPKLLIYAASYLESGVPSRFSGSGSGTDFTLTISSLQPEDFATYYCQQSHEDPYTFGQGTKVEIKRTVAAPSVFIFPPSDEQLKSGTASVVCLLNNFYPREAKVQWKVDNALQSGNSQESVTEQDSKDSTYSLSSTLTLSKADYEKHKVYACEVTHQGLSSPVTKSFNRGEC | 0.84 | 1.01 | 0.95
E27 IgG1 variant E318(337)K (antibody) heavy: not shown light: DIQLTQSPSSLSASVGDRVTITCRASKPVDGEGDSYLNWYQQKPGKAPKLLIYAASYLESGVPSRFSGSGSGTDFTLTISSLQPEDFATYYCQQSHEDPYTFGQGTKVEIKRTVAAPSVFIFPPSDEQLKSGTASVVCLLNNFYPREAKVQWKVDNALQSGNSQESVTEQDSKDSTYSLSSTLTLSKADYEKHKVYACEVTHQGLSSPVTKSFNRGEC | 0.72 | 1.03 | 1.08
E27 IgG1 variant E333(352)G (antibody, also called IG2 178) heavy: not shown light: DIQLTQSPSSLSASVGDRVTITCRASKPVDGEGDSYLNWYQQKPGKAPKLLIYAASYLESGVPSRFSGSGSGTDFTLTISSLQPEDFATYYCQQSHEDPYTFGQGTKVEIKRTVAAPSVFIFPPSDEQLKSGTASVVCLLNNFYPREAKVQWKVDNALQSGNSQESVTEQDSKDSTYSLSSTLTLSKADYEKHKVYACEVTHQGLSSPVTKSFNRGEC | 1.05 | 0.87 | 0.76
E27 IgG1 variant E333(352)N (antibody) heavy: not shown light: DIQLTQSPSSLSASVGDRVTITCRASKPVDGEGDSYLNWYQQKPGKAPKLLIYAASYLESGVPSRFSGSGSGTDFTLTISSLQPEDFATYYCQQSHEDPYTFGQGTKVEIKRTVAAPSVFIFPPSDEQLKSGTASVVCLLNNFYPREAKVQWKVDNALQSGNSQESVTEQDSKDSTYSLSSTLTLSKADYEKHKVYACEVTHQGLSSPVTKSFNRGEC | 0.56 | 0.59 | 0.52
